Measured values reported in patent US20140056902A1 (Kyowa Kirin, published 2014).
Each block holds one binder with its values, some of them ahead of it.

B2: human mature dimer BMP10 recombinant protein (manufactured by R&D systems, Cat#2926-BP) (ligand)
chain: NAKGNYCKRTPLYIDFKEIGWDSWIIAPPGYEAYECRGVCNYPLAEHLTPTKHAIIQALVHLKNSQKASKACCVPTKLEPISILYLDKGVVTYKFKYEGMAVSECGCR

Columns and labels:
[1] = target: B2; test: ELISA, immobilized antigen (100 ng/mL coat), biotin-labeled antibody at 100 ng/mL, absorbance 450-570 nm
Description: To examine specificity of the obtained antibodies to human BMP9, their binding ability to human BMP9 and human BMP10 having the highest homology to human BMP9 was tested by comparison. First, 100 ng/mL of human mature dimer BMP9 recombinant protein (manufactured by R&D systems, Cat#3209-BP), or human mature dimer BMP10 recombinant protein (manufactured by R&D systems, Cat#2926-BP) prepared in 50 mmol/L NaHCO₃ buffer (manufactured by Wako, Cat#191-01305) was added to a 96-well plate for ELISA (F96 MAXISORP NUNC-IMMUNO PLATE, manufactured by Thermo Fisher Scientific, Cat#442404) at an amount of 50 μL/well, and left at 4° C. overnight for adsorption.
Subsequently, 6D10-1-1 antibody, 10D5-2-3 antibody, 3B7-3-3 antibody, R&D antibody, or anti-BMP10 antibody (manufactured by R&D, Cat#MAB2926) that was labeled with biotin using a Biotin Labeling Kit-NH2 (manufactured by COSMO BIO, Cat#LK03) was prepared at a concentration of 100 ng/mL using 10% Super Block in TBST which was prepared by mixing SuperBlock and TBST at a ratio of 1:9. 50 μL/well thereof was aliquoted as a primary antibody, and left at room temperature for 1 hour.
(§1) The plate was washed with TBST five times, and 50 μL/well of the TMB substrate reagent (TMB+ Substrate-Chromogen, manufactured by Dako, Cat#S1599) was added for color-development. When proper color was developed, 50 μL/well of the 1 N sulfuric acid solution (manufactured by Wako, Cat#192-04755) was added, and absorbance (450 nm-570 nm) at a sample wavelength of 450 nm and at a reference wavelength of 570 nm was determined using a plate reader (manufactured by Spectra Max, Molecular Devices).

[2] = target: T1, full-length human ALK1 expressed on the reporter cell line ALK1/p(GCCG)12-Luc/HepG2(38.5) (human, UniProt P37023 22-503); test: cell-based or functional assay
T1 sequence (P37023 22-503 limits assumed): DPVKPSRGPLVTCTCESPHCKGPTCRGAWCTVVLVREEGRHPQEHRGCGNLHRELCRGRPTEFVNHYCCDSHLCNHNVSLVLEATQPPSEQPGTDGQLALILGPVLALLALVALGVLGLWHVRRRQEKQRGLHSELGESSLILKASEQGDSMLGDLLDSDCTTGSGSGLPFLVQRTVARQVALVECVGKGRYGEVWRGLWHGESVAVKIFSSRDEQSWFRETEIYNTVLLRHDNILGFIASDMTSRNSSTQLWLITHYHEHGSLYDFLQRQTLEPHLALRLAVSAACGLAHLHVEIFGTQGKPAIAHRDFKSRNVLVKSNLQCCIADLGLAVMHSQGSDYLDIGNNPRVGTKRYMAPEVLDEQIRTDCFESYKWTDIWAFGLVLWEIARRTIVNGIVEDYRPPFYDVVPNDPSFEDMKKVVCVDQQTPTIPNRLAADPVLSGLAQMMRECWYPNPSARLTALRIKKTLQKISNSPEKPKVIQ

[3] = target: T1, full-length human ALK1 expressed on the …; test: cell-based or functional assay; remark: listed apart in the source
[4] = target: T2, human mature dimer BMP9 recombinant protein (manufactured by R&D systems, Cat#3209-BP) (human, UniProt Q9UK05 320-429); test: SPR (Biacore T100), antibody captured on anti-human IgG, human BMP9 as analyte
T2 construct: Bought protein; also called human BMP9; human BMP9 recombinant protein (manufactured by R&D systems)
T2 sequence: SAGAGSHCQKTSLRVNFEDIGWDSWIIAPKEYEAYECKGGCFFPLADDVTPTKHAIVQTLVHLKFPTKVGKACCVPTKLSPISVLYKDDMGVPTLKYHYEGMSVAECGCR
Description: For the purpose of comparing binding activity to human BMP9 between c10D5-2-3 antibody and 22 types of 10D5-2-3 antibody-humanized antibodies obtained in Example 22-7, binding activity to human BMP9 recombinant protein (manufactured by R&D systems) was measured by surface plasmon resonance (SPR) using a BiacoreT100 instrument (manufactured by GE Healthcare bioscience).
Anti-human IgG antibody was immobilized onto a CM5 sensor chip (manufactured by GE Healthcare bioscience) using a Human Antibody Capture Kit (manufactured by GE Healthcare bioscience) in accordance with the accompanying protocol. 0.4 μg/mL of c10D5-2-3 antibody or each humanized antibody was applied to the flow cell onto which anti-human IgG antibody was immobilized, at a flow rate of 10 μL/min for 2 minutes.
Subsequently, human BMP9 recombinant protein (manufactured by R&D systems, Cat#3209-BP) was subjected to 2-fold serial dilution starting from […] to give 5 concentrations, and applied at a flow rate of 10 μL/min, and association was monitored over 3 minutes and dissociation over 3 minutes at a flow of 10 μL/min. The sensorgram thus obtained was analyzed by BiaEvaluation Software (manufactured by GE Healthcare bioscience) to calculate the rate constant of each antibody.

[5] = target: T3, human BMP9 recombinant protein prepared according to Example 12 of WO 2010/126169 (N-terminal His-tagged … (human, UniProt Q9UK05 320-429; Q9UK05 23-319); test: SPR (BIAcore 2000), antibody captured on anti-mouse IgG, human BMP9 recombinant protein as analyte, single cycle kinetics
T3 construct: not shown: N-terminal His tag
T3 sequence 1: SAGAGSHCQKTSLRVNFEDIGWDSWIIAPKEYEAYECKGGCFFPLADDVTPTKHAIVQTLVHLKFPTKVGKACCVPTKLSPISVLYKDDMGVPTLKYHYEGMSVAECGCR
T3 sequence 2: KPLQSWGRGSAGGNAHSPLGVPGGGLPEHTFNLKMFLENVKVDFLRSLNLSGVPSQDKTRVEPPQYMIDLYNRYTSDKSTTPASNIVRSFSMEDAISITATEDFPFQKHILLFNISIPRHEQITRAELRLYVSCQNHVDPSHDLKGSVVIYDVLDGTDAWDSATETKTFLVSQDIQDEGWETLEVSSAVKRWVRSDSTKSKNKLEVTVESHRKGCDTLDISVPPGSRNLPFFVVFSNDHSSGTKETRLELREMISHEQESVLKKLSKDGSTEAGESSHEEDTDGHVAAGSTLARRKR
Text: The binding activity (affinity) of the obtained antibodies to human BMP9 recombinant protein was examined using BIAcore 2000 (manufactured by GE Healthcare). After anti-mouse IgG antibody was immobilized onto a CM5 sensor chip using a Mouse Antibody Capture Kit (manufactured by GE Healthcare), anti-human BMP9 antibody was coupled to an RU value of 700-1100.
Thereafter, 0.152 nmol/L, 0.457 nmol/L, 1.37 nmol/L, 4.1 nmol/L, 12.3 nmol/L, 36.89 nmol/L, 110.67 nmol/L, and […] of the human BMP9 recombinant protein prepared in Example 7-1 were prepared by using an HBS-EP solution (manufactured by GE Healthcare) and added as analytes, and binding affinity was measured.
Based on the obtained values, the dissociation constant (Kd value) was calculated by single cycle kinetics (BIAevaluation Software ver. 3, manufactured by GE Healthcare).

[6] = target: T4, N-terminal His-tagged BMP10 expressed by the pLN1V5_human BMP10 vector (human, UniProt O95393 22-424); test: antigen-immobilized ELISA, antigen coated at 3 ug/mL
T4 sequence: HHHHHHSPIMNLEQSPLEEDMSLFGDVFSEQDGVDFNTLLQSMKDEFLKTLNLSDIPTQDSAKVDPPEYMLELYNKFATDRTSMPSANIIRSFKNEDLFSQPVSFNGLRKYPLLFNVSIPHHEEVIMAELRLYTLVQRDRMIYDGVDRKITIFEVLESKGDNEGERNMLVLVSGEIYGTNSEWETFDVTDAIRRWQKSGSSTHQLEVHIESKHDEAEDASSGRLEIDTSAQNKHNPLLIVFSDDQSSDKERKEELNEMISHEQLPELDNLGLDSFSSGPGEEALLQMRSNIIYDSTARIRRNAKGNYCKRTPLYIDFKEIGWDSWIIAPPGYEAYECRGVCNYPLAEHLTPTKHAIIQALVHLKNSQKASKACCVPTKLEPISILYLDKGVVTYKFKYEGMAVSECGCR
Description: Antigen immobilized ELISA of the obtained antibodies was performed using the chimeric protein. 3 μg/mL of the recombinant human BMP9, BMP10, and BMP9/10 chimeric proteins of Example 20-2 in 50 mmol/L NaHCO₃ buffer were added to a 96-well plate for ELISA (F96 MAXISORP NUNC-IMMUNO PLATE, manufactured by Thermo Fisher Scientific, Cat#442404) at an amount of 50 μL/well, and left at 4° C. overnight for adsorption.
After removal of the reagent for immobilization, 200 μL/well of 1% BSA-PBS was added, and left at room temperature for 1 hour for blocking, and washing was carried out using PBST five times. […]
The plate was washed with PBST ten times, and 50 μL/well of the TMB chromogen reagent (TMB+Substrate-Chromogen, manufactured by Dako, Cat#S 1599) was added for chromogenic reaction. When the intensity of chromogenic reaction became strong enough, 50 μL/well of a 1 N sulfuric acid solution (manufactured by Wako, Cat#192-04755) was added, and absorbance at 450 nm and 570 nm was determined using a Multiskan Spectrum (manufactured by Thermo Labsystems).

[7] = target: T2, human mature dimer BMP9 recombinant …; test: ELISA, immobilized human BMP9 (100 ng/mL coat), biotin-labeled antibody titrated, absorbance 450-570 nm; unit ng/mL from the legend
Description: First, 100 ng/mL of human mature dimer BMP9 recombinant protein (manufactured by R&D systems, Cat#3209-BP) prepared in 50 mmol/L NaHCO₃ buffer was added to a 96-well plate for ELISA (F96 MAXISORP NUNC-IMMUNO PLATE, manufactured by Thermo Fisher Scientific, Cat#439454) at an amount of 50 μL/well, and left at 4° C. overnight for adsorption.
After removal of the reagent for immobilization, 200 μL/well of SuperBlock (manufactured by Thermo […], Cat#37535) was added, and left at room temperature for 1 hour for blocking, and washing was carried out using TBST three times. Subsequently, the biotin-labeled 6D10-1-1 antibody, 10D5-2-3 antibody, 3B7-3-3 antibody or R&D antibody was prepared at a concentration of 1, 5, 20, 100, or 300 ng/mL using 10% Super Block in TBST. Each 50 μL/well thereof was aliquoted, and left at room temperature for 1 hour.
as §1

- binding result [1]: no binding (tested: 100 ng/mL)
B1: 3B7-3-3 antibody (antibody, mouse IgG1, V domains shown)
VH: EVQLQQSRPELVKPGASVKISCKASDYSFTDYYMNWVKQSPDKSLEWIGEISPSSGGTTYNQKFKAKATLTVDKSSSTAYMQLKSLTSEDSAVYYCATRGAFYFDYWGQGTALTVSS
VL: QIVLTQSPALMSAFPGEKVTMTCSASSSVSYMYWYQQKPRSSPKPWIYLTSNLASGVPTRFSGSGSGTSYSLTISSMEAEDAATYFCQQWSSNPRTFGGGTKLEIKR
notes: Mouse monoclonal from a BMP9 KO mouse hybridoma; mouse IgG1 heavy chain, kappa light chain

Binder: B2
- EC50 (read off the curve); luciferase activity (RLU) of human ALK1 reporter cells, with 3 ug/mL 10D5-2-3 antibody alone (filled square) [2]: ~0.3 ng/mL
- EC50 (read off the curve); luciferase activity (RLU) of human ALK1 reporter cells, with the complex of 3 ug/mL 10D5-2-3 antibody and 2 ng/mL human BMP9 (open triangle) [2]: ~0.3 ng/mL
- EC50 (read off the curve); luciferase activity (RLU) of human ALK1 reporter cells, with the complex of 3 ug/mL 10D5-2-3 antibody and 10 ng/mL human BMP9 (open circle) [2]: ~0.2 ng/mL
- EC50 (read off the curve); luciferase activity (RLU) of human ALK1 reporter cells, with 3 ug/mL 6D10-1-1 antibody alone (filled square) [3]: ~0.4 ng/mL

B3: 10D5-2-3 antibody-humanized antibody HV0LV3 (antibody, V domains shown)
VH: EVQLVESGGGLVQPGGSLRLSCAASGFTFSNYWMNWVRQAPGKGLEWVGHIRLKSDNYATHYAESVRGRFTISRDDSKNSLYLQMNSLKTEDTAVYYCARGSNYVFAFWGQGTLVTVSS
VL: DIVMTQSPDSLAVSLGERATINCRASESVDNYGISFMNWFQQKPGQPPKLLIYAASNQGSGVPDRFSGSGSGTDFTLTISPLQAEDVAVYFCQQSKEVPWTFGQGTKLEIK
notes: Expressed from pKANTEX93
- binding result [4]: no binding (tested: human BMP9 up to 1 nM)

B4: 10D5-2-3 antibody-humanized antibody HV0LV4 (antibody, V domains shown)
VH: EVQLVESGGGLVQPGGSLRLSCAASGFTFSNYWMNWVRQAPGKGLEWVGHIRLKSDNYATHYAESVRGRFTISRDDSKNSLYLQMNSLKTEDTAVYYCARGSNYVFAFWGQGTLVTVSS
VL: DIVLTQSPDSLAVSLGERATINCRASESVDNYGISFMNWYQQKPGQPPKLLIYAASNQGSGVPDRFSGSGSGTDFTLTISPMQAEDVAMYYCQQSKEVPWTFGQGTKLEIK
notes: Expressed from pKANTEX93
- binding result [4]: no binding (tested: human BMP9 up to 1 nM)

- binding result [1]: no binding (tested: 100 ng/mL)
- Kd [5]: 0.0297 nM
- Relative binding affinity (to R&D antibody) [5]: 20.7 fold
- binding result [6]: no binding
- EC50 (read off the curve) [7]: ~8 ng/mL
B5: 6D10-1-1 antibody (antibody, mouse IgG1, V domains shown)
VH: QVQLQQSGAELVRPGTSVKVSCKASGYAFTNYLMEWIKQRPGQGLEWIGVIHPGIGVTNYNEKFKGKATLTADISSSTAYMQLSSLTSEDSAVYFCARRANWDLYYFDYWGQGTTLTVSS
VL: DIQMTQITSSLSASLGDRVTISCSASQDISNYLNWYQQKPDGTVKLLIYYTSSLHSEVPSRFSGSGSGTDYSLTISNLEPEDIATYYCQQYINLPLTFGAGTKLELKR
notes: Mouse monoclonal from a BMP9 KO mouse hybridoma; also called 610D-1-1 antibody
